# Target: natural β-amyloid peptide β-AP1-40 (human)
# Test: cell-based or functional assay
% Inhibition of Plateau; nucleation assay; 100 mole %,Fold Increase in Lag Time; nucleation assay; 100 mole %,Binder
~0%,0.8 fold,SNKGAIIGLMVGGVV [unmodified Aβ26-40]
~0%,~1 fold,AEDVGSNKGAIIGLM [unmodified Aβ21-35]

# The next lines start with the binder.
Binder,% Inhibition of Plateau; nucleation assay; 100 mole %,Fold Increase in Lag Time; nucleation assay; 100 mole %
"DAEFRHDSGYEVHHQAEDVGSNKGAIIGLMVGGVV [Aβ1-15, 21-40(Δ16-20)]",~0%,1.55 fold
"DAEFRHDSGYEVHHQKLVFFSNKGAIIGLMVGGVV [Aβ1-20, 26-40(Δ21-25)]",~0%,2.37 fold
DAEFRHDSGYEVHHQ [unmodified Aβ1-15],18%,~1 fold
"DAEFRHDSGYKLVFFAEDVGSNKGAIIGLMVGGVV [Aβ1-10, 16-40(Δ11-15)]",~0%,~1.2 fold

# Reference: patent US7658917 (PRAECIS PHARMACEUTICALS, dated 2010)
